US20220112273A1 (University of Pennsylvania, published 2022)

B1: CHIKV-Env-Fab (Fab, V domains shown)
VH: QVQLVQSGSELKKPGASVKVSCKASGYTLTRYAMTWVRQAPGQGLEWMGWINTYTGNPTYVQGFTGRFVFSLDTSVSTAFLHITSLKAEDTAVYFCAREGGARGFDYWGQGTLVTVSS
VL: QSVLTQPPSVSGAPGQRVTISCTGSSSNIGASHDVHWYQQLPGTAPTLLIYVNSNRPSGVPDRFSGSKSGTSASLAITGLQAEDEADYYCQSYDSNLSGSAVFGGGTKLTVLG
B2: HIV-1 Env-Fab (Fab generated from the VRC01 antibody, expressed from pHIV-1Env-Fab) (Fab, V domains shown)
VH: QVQLVQSGGQMKKPGESMRISCRASGYEFIDCTLNWIRLAPGKRPEWMGWLKPRGGAVNYARPLQGRVTMTRDVYSDTAFLELRSLTVDDTAVYFCTRGKNCDYNWDFEHWGRGTPVIVSS
VL: QIVLTQSPGTLSLSPGETAIISCRTSQYGSLAWYQQRPGQAPRLVIYSGSTRAAGIPDRFSGSRWGPDYNLTISNLESGDFGVYYCQQYEFFGQGTKVQVDI
B3: CHIKV-IgG (full-length anti-CHIKV Env human IgG from a single plasmid) (antibody, V domains shown)
VH: QVQLQQPGAALVKPGASAMMSCKASGYTFTSYWITWVKQRPGQGLEWIGDIYPGTGRTIYKEKFKTKATLTVDTSSSTAFMQLNSLTSEDSAVYYCARGYGSPYYALDYWGQGTSVTVSS
VL: DIVLTQSPASLAVSQGQRATISCKASQSVDYDGDSYVNWYQQKPGQSPKLLIYDASNLESGIPARFSGSGSGTDFTLNIHPVEEEDVATYYCQESNEDPRTFGGGTKLEIKR

Tests used:
[1] = target: recombinant HIV-1 Env (subtype B; MN) protein (HIV-1 (subtype B, MN), UniProt P05877 32-513); experiment: binding ELISA, serial dilutions of day 14 mouse sera (FIG. 64A)
[2] = target: Env of pseudotyped HIV-1 Q23Env17 virus (clade A, tier 1) (HIV-1 (clade A, Q23Env17)); experiment: cell-based or functional assay
[3] = target: Env of pseudotyped HIV-1 Bal26 virus (clade B, tier 1) (HIV-1 (clade B, Bal26)); experiment: cell-based or functional assay
[4] = target: Env of pseudotyped HIV-1 SF162S virus (clade B, tier 1) (HIV-1 (clade B, SF162S)); experiment: cell-based or functional assay

Binder | binding result [1] | plateau percent neutralization (TZM-Bl luciferase assay, sera at 1:50) [2] [%] | plateau percent neutralization (TZM-Bl luciferase assay, sera at 1:50) [3] [%] | plateau percent neutralization (TZM-Bl luciferase assay, sera at 1:50) [4] [%]
B1 | no binding | – | – | –
B2 | – | ~60 | ~62 | ~70
B3 | no binding | – | – | –
